Results from the supplement of paper PMC10724198.
± gives the standard deviation of the averaged measurements.

Columns and labels:
Saccharomyces cerevisiae [1] = assay: protein stability index of tFT-peptide fusion (C-terminal peptide) (PSI (0-1 scale)); higher = more stable (slower turnover)
Experimental: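 MPS profiling in S. cerevisiae of the tFT-X12 degron library: putative degron peptides plus stable controls, 12 aa, fused to the C-terminus of a sfGFP-mCherry timer. Cells are FACS-sorted into 8 mCherry/sfGFP bins and deep-sequenced. PSI runs from 0 (unstable) to 1 (stable). Backgrounds are wild type, das1Δ and doa10Δ at 30 °C, and wild type, das1Δ, cdc34-1 and cdc53-1 at 37 °C; 2-3 technical replicates each.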

Saccharomyces cerevisiae [2] = assay: as above; conditions: genetic background: wild type; temperature: 30 C
[3] = genetic background: cdc34-1, temperature: 37 C
[4] = genetic background: cdc53-1, temperature: 37 C
[5] = genetic background: das1 deletion, temperature: 30 C
[6] = genetic background: das1 deletion, temperature: 37 C
[7] = genetic background: doa10 deletion, temperature: 30 C
[8] = genetic background: wild type, temperature: 30 C
[9] = genetic background: wild type, temperature: 37 C
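Further: PSI is a weighted mean of sequencing reads over stability bins, variants kept only with over 10 reads, mCherry proximal and sfGFP distal, peptide attached via GGGS linker.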

| Sequence | protein stability index (Saccharomyces cerevisiae [1]; [3]) | protein stability index (Saccharomyces cerevisiae [1]; [4]) | protein stability index (Saccharomyces cerevisiae [1]; [5]) | protein stability index (Saccharomyces cerevisiae [1]; [6]) | protein stability index (Saccharomyces cerevisiae [1]; [7]) | protein stability index (Saccharomyces cerevisiae [1]; [8]) | protein stability index (Saccharomyces cerevisiae [1]; [9]) | protein stability index (Saccharomyces cerevisiae [2]) |
| --- | --- | --- | --- | --- | --- | --- | --- | --- |
| FWFVSVFIVFFC | 0.185 ± 0.0033 | 0.26 ± 0.021 | 0.222 ± 0.043 | 0.337 ± 0.022 | 0.179 ± 0.018 | 0.164 ± 0.034 | 0.279 ± 0.018 | 0.223 ± 0.026 |
| FYLPGLFFVRFR | 0.167 ± 0.072 | 0.0822 ± 0.053 | 0.313 ± 0.043 | 0.33 ± 0.019 | 0.616 ± 0.037 | 0.272 ± 0.026 | 0.29 ± 0.04 | 0.391 ± 0.022 |
| FYVIFRRACLSV | 0.281 ± 0.0084 | 0.32 ± 0.016 | 0.234 ± 0.03 | 0.3605 ± 0.0029 | 0.1681 ± 0.00044 | 0.195 ± 0.0079 | 0.299 ± 0.0099 | 0.292 ± 0.077 |
| GACGLGMLIFIV | 0.585 ± 0.04 | 0.618 ± 0.03 | 0.427 ± 0.026 | 0.623 ± 0.015 | 0.256 ± 0.012 | 0.29 ± 0.02 | 0.511 ± 0.017 | 0.411 ± 0.0075 |
| GAPIFSSFLLFC | 0.541 ± 0.054 | 0.652 ± 0.022 | 0.579 ± 0.032 | 0.667 ± 0.012 | 0.332 ± 0.028 | 0.31 ± 0.028 | 0.5425 ± 0.0023 | 0.412 ± 0.026 |
| GARCFGFFCFLV | 0.4284 ± 0.0039 | 0.507 ± 0.027 | 0.447 ± 0.032 | 0.582 ± 0.011 | 0.127 ± 0.0078 | 0.115 ± 0.017 | 0.169 ± 0.0064 | 0.207 ± 0.011 |
| GCIFGNVVFVRV | 0.602 ± 0.031 | 0.6098 ± 0.0023 | 0.424 ± 0.03 | 0.6335 ± 0.0023 | 0.433 ± 0.02 | 0.433 ± 0.022 | 0.611 ± 0.0075 | 0.472 ± 0.062 |
| GCIMHLTIYVRD | 0.302 ± 0.03 | 0.3761 ± 0.0008 | 0.265 ± 0.026 | 0.439 ± 0.032 | 0.2235 ± 0.0014 | 0.26 ± 0.028 | 0.4088 ± 0.0016 | 0.322 ± 0.0096 |
| GCPRSWSFNIYV | 0.686 ± 0.046 | 0.739 ± 0.0099 | 0.665 ± 0.013 | 0.742 ± 0.018 | 0.182 ± 0.018 | 0.199 ± 0.022 | 0.463 ± 0.013 | 0.408 ± 0.04 |
| GCRSLRLWLTFS | 0.638 ± 0.018 | 0.7023 ± 0.0065 | 0.628 ± 0.02 | 0.726 ± 0.013 | 0.299 ± 0.0033 | 0.312 ± 0.015 | 0.551 ± 0.024 | 0.443 ± 0.029 |
| GCVVVLIPVVSA | 0.333 ± 0.014 | 0.338 ± 0.0038 | 0.249 ± 0.038 | 0.415 ± 0.0087 | 0.215 ± 0.0045 | 0.266 ± 0.015 | 0.381 ± 0.0088 | 0.382 ± 0.022 |
| GEAYVYLFVYSC | 0.4329 ± 0.0022 | 0.467 ± 0.0051 | 0.276 ± 0.036 | 0.541 ± 0.019 | 0.16 ± 0.012 | 0.173 ± 0.017 | 0.387 ± 0.0098 | 0.25 ± 0.0051 |
| GEWCLPLRLVVY | 0.061 ± 0.013 | 0.0685 ± 0.024 | 0.185 ± 0.021 | 0.201 ± 0.011 | 0.137 ± 0.01 | 0.172 ± 0.02 | 0.174 ± 0.012 | 0.22 ± 0.043 |
| GFCVRIFHGFLH | 0.634 ± 0.0084 | 0.7 ± 0.044 | 0.649 ± 0.018 | 0.7197 ± 0.0045 | 0.215 ± 0.0082 | 0.251 ± 0.04 | 0.501 ± 0.014 | 0.351 ± 0.01 |
| GFDVFWLWVVVA | 0.0676 ± 0.024 | 0.208 ± 0.017 | 0.192 ± 0.032 | 0.307 ± 0.022 | 0.0812 ± 0.011 | 0.103 ± 0.027 | 0.0966 ± 0.015 | 0.125 ± 0.019 |
| GFRMACYIRVLS | 0.337 ± 0.015 | 0.38 ± 0.017 | 0.245 ± 0.046 | 0.445 ± 0.0051 | 0.175 ± 0.01 | 0.182 ± 0.026 | 0.286 ± 0.02 | 0.296 ± 0.016 |
| GFSFVCFSPFLF | 0.667 ± 0.041 | 0.779 ± 0.02 | 0.65 ± 0.0058 | 0.745 ± 0.011 | 0.3864 ± 0.0023 | 0.41 ± 0.02 | 0.5401 ± 0.001 | 0.42 ± 0.038 |
| GFVRTVWLMCYV | 0.286 ± 0.027 | 0.341 ± 0.017 | 0.285 ± 0.025 | 0.417 ± 0.013 | 0.129 ± 0.017 | 0.161 ± 0.012 | 0.203 ± 0.013 | 0.245 ± 0.032 |
| GFWLAFLWYRES | 0.386 ± 0.067 | 0.507 ± 0.021 | 0.34 ± 0.035 | 0.548 ± 0.016 | 0.222 ± 0.015 | 0.248 ± 0.036 | 0.433 ± 0.033 | 0.4406 ± 0.0022 |
| GGAVGVRGGCRG | 0.565 ± 0.12 | 0.7112 ± 0.0027 | 0.496 ± 0.017 | 0.635 ± 0.036 | 0.522 ± 0.05 | 0.512 ± 0.027 | 0.607 ± 0.026 | 0.452 ± 0.033 |

| Sequence | protein stability index (Saccharomyces cerevisiae [1]; [3]) | protein stability index (Saccharomyces cerevisiae [1]; [4]) | protein stability index (Saccharomyces cerevisiae [1]; [5]) | protein stability index (Saccharomyces cerevisiae [1]; [6]) | protein stability index (Saccharomyces cerevisiae [1]; [7]) | protein stability index (Saccharomyces cerevisiae [1]; [8]) | protein stability index (Saccharomyces cerevisiae [1]; [9]) | protein stability index (Saccharomyces cerevisiae [2]) |
| --- | --- | --- | --- | --- | --- | --- | --- | --- |
| GGCILYFCMSIV | 0.411 ± 0.021 | 0.492 ± 0.0065 | 0.387 ± 0.029 | 0.505 ± 0.011 | 0.371 ± 0.0097 | 0.374 ± 0.0063 | 0.472 ± 0.026 | 0.4 ± 0.026 |
| GGGSRICIVRLS | 0.654 ± 0.092 | 0.7229 ± 0.0024 | 0.636 ± 0.017 | 0.722 ± 0.0083 | 0.178 ± 0.025 | 0.197 ± 0.023 | 0.406 ± 0.03 | 0.337 ± 0.077 |
| GGGVRWGVLVLG | 0.527 ± 0.007 | 0.606 ± 0.032 | 0.4 ± 0.035 | 0.599 ± 0.013 | 0.346 ± 0.017 | 0.391 ± 0.036 | 0.553 ± 0.012 | 0.474 ± 0.011 |
| GGLGIVWLWLVV | 0.344 ± 0.021 | 0.42 ± 0.024 | 0.307 ± 0.033 | 0.4926 ± 0.0048 | 0.234 ± 0.016 | 0.282 ± 0.02 | 0.467 ± 0.016 | 0.378 ± 0.047 |
| GGLRILLRLVWT | 0.471 ± 0.052 | 0.47 ± 0.014 | 0.377 ± 0.033 | 0.488 ± 0.008 | 0.381 ± 0.011 | 0.345 ± 0.045 | 0.471 ± 0.014 | 0.454 ± 0.025 |
| GGWVIVFMVGRG | 0.523 ± 0.049 | 0.629 ± 0.084 | 0.362 ± 0.033 | 0.5982 ± 0.002 | 0.334 ± 0.0065 | 0.3607 ± 0.0035 | 0.535 ± 0.02 | 0.427 ± 0.02 |
| GIALYVCFICVG | 0.213 ± 0.0051 | 0.364 ± 0.013 | 0.253 ± 0.017 | 0.4325 ± 0.0026 | 0.137 ± 0.026 | 0.17 ± 0.015 | 0.276 ± 0.012 | 0.245 ± 0.05 |
| GIIRVSSQVIVR | 0.565 ± 0.0072 | 0.607 ± 0.018 | 0.445 ± 0.026 | 0.617 ± 0.0065 | 0.422 ± 0.012 | 0.443 ± 0.0097 | 0.5905 ± 0.0054 | 0.523 ± 0.035 |
| GLCLMICVLCFV | 0.207 ± 0.0085 | 0.315 ± 0.023 | 0.244 ± 0.027 | 0.382 ± 0.0052 | 0.214 ± 0.00016 | 0.23 ± 0.027 | 0.337 ± 0.023 | 0.299 ± 0.0039 |
| GLCSFPCSSCRL | 0.875 ± 0.023 | 0.8868 ± 0.0025 | 0.76 ± 0.018 | 0.812 ± 0.028 | 0.772 ± 0.024 | 0.772 ± 0.054 | 0.836 ± 0.021 | 0.756 ± 0.052 |
| GLCVGRMFVRQI | 0.6614 ± 0.0031 | 0.7126 ± 0.0054 | 0.661 ± 0.018 | 0.7222 ± 0.005 | 0.248 ± 0.0031 | 0.263 ± 0.026 | 0.5463 ± 0.0024 | 0.454 ± 0.011 |
| GLFWWVWAGFFC | 0.7005 ± 0.0052 | 0.7681 ± 0.0013 | 0.583 ± 0.023 | 0.8189 ± 0.0055 | 0.428 ± 0.025 | 0.421 ± 0.018 | 0.624 ± 0.056 | 0.436 ± 0.011 |
| GLGFFMSFCFFL | 0.554 ± 0.015 | 0.579 ± 0.031 | 0.477 ± 0.06 | 0.567 ± 0.011 | 0.474 ± 0.0077 | 0.4562 ± 0.0037 | 0.55817 ± 0.00049 | 0.484 ± 0.036 |
| GLLAWGCVFWVV | 0.402 ± 0.037 | 0.52 ± 0.01 | 0.336 ± 0.048 | 0.544 ± 0.01 | 0.167 ± 0.015 | 0.198 ± 0.017 | 0.3379 ± 0.00092 | 0.259 ± 0.014 |
| GLLGRSRLIFYN | 0.721 ± 0.026 | 0.8063 ± 0.0023 | 0.661 ± 0.013 | 0.788 ± 0.01 | 0.427 ± 0.0058 | 0.458 ± 0.018 | 0.666 ± 0.0092 | 0.517 ± 0.088 |
| GLVAGVYVGSGL | 0.7099 ± 0.0059 | 0.759 ± 0.011 | 0.629 ± 0.036 | 0.741 ± 0.0076 | 0.648 ± 0.031 | 0.616 ± 0.013 | 0.721 ± 0.01 | 0.701 ± 0.02 |
| GMCRVELIATCG | 0.368 ± 0.039 | 0.409 ± 0.018 | 0.276 ± 0.036 | 0.453 ± 0.011 | 0.229 ± 0.0046 | 0.28 ± 0.026 | 0.4381 ± 0.0011 | 0.307 ± 0.031 |
| GMGYISVVVWSH | 0.0293 ± 0.0072 | 0.1 ± 0.029 | 0.141 ± 0.046 | 0.2283 ± 0.00048 | 0.104 ± 0.015 | 0.114 ± 0.017 | 0.155 ± 0.017 | 0.208 ± 0.0092 |
| GQLKGKDETEKK | 0.7023 ± 0.005 | 0.749 ± 0.027 | 0.616 ± 0.023 | 0.769 ± 0.029 | 0.645 ± 0.027 | 0.655 ± 0.051 | 0.691 ± 0.0094 | 0.191 ± 0.021 |
